From patent publication US5830703
Where no end group is shown, it is not given here.

Molecular target: sodium channel

flow of ^22 Na into cells [%]	Binder
30	ARLDVASEFRKKWNKWALSR (ends and bridges not checked) [proadrenomedullin N-terminal 20 peptide (proAM-N20)]
70	RKKWNKWALSR (ends and bridges not checked) [proadrenomedullin N-terminal 10-20 peptide (proAM-N(10-20))]
